Laboratory results reported in patent US20060153778A1 (MannKind Corporation, priority 2005, published 2006).
Where two headings read alike, the source gives them in different places.

Key:
[1] = in vivo
[2] = in vivo; remark: listed apart in the source
[3] = Glucose clamp study after inhalation of Technosphere/Insulin: glucose infusion rate (biological action), tolerability; assay type: in vivo, human; settings: for T-50% (time from baseline to half-maximal after passing Tmax), calculated on glucose infusion rate / Tmax, calculated on glucose infusion rate / T50% (time from baseline to half-maximal values), calculated on glucose infusion rate: glucose clamp; for T50% (time from baseline to half-maximal values), calculated on glucose infusion rate: healthy male volunteers
Excerpt: (§1) The volunteers were in good health, as judged by physical examination, age: 18 to 40 years, body mass index: 18 to 26 kg/m^2, capability to reach peak inspiratory flow of ≧4 L/sec measured by a computer assisted spirometry and a FEV1 (FEV1=forced expiratory volume in one second) equal to or greater than 80% of predicted normal.
(§2) On the morning of the study days, the subjects came to the hospital (fasting, except for water, from midnight onward) at 7:30 a.m. The subjects were restricted from excessive physical activities and an intake of alcohol for 24 hours before each treatment day. They were randomly assigned to one of the three treatment arms. […] Blood glucose was kept constant at a level of 90 mg/dL throughout the glucose clamp by a glucose controlled infusion system (BIOSTATOR™, Life Science Instruments, Miles Laboratories, Elkhart, Ind.). The glucose clamp algorithm was based on the actual measured blood glucose concentration and the grade of variability in the minutes before to calculate the glucose infusion rates for keeping the blood glucose concentration constant. […] The duration of the clamp experiment was 6 hours from time point 0. Glucose infusion rates, blood glucose, serum insulin and C-peptide were measured.

[4] = Time to peak blood concentration and uptake rate after pulmonary delivery (general statements)
[5] = Glucose clamp study: serum insulin concentrations, bioavailability; assay type: in vivo, human
Excerpt: as §1
as §2, with “0.” for “0. Glucose infusion rates, blood glucose, serum insulin and C-peptide were measured.”

In the case of `O=C(O)/C=C/C(=O)NCCCC[C@@H]1NC(=O)[C@H](CCCCNC(=O)/C=C/C(=O)O)NC1=O` [FDKP, fumaryl diketopiperazine], the “Transit from the lungs” value [1] is reported as “kinetics similar to that of insulin”.
With `CCNC(=O)[C@@H]1CCCN1C(=O)[C@H](CCCNC(=N)N)NC(=O)[C@H](CC(C)C)NC(=O)[C@@H](CC(C)C)NC(=O)[C@H](Cc1ccc(O)cc1)NC(=O)[C@H](CO)NC(=O)[C@H](Cc1c[nH]c2ccccc12)NC(=O)[C@H](Cc1c[nH]cn1)NC(=O)[C@@H]1CCC(=O)N1` [leuprolide] the “Time to peak blood concentrations” value [2] was 3 to 10 min.
For “insulin: insulin given as 5 IU intravenous or 10 IU subcutaneous injection, or by the pulmonary route without fumaryl diketopiperazine; comparator”, the “T to baseline, calculated on glucose infusion rate” value ([3]; 5 IU insulin intravenous, clamp duration 6 hours) was 240 min, the “T-50% (time from baseline to half-maximal after passing Tmax), calculated on glucose infusion rate” value ([3]; 5 IU insulin intravenous) was 1.37 h and the “Tmax, calculated on glucose infusion rate” value ([3]; 5 IU insulin intravenous) was 0.233 h. For the same molecule, the “T50% (time from baseline to half-maximal values), calculated on glucose infusion rate” value ([3]; 5 IU insulin intravenous) was 9 min, the “T-50% (time from baseline to half-maximal after passing Tmax), calculated on glucose infusion rate” value ([3]; 10 IU insulin subcutaneous) was 4 h and the “Tmax, calculated on glucose infusion rate” value ([3]; 10 IU insulin subcutaneous) was 2.72 h. For the same molecule, the “T50% (time from baseline to half-maximal values), calculated on glucose infusion rate” value ([3]; 10 IU insulin subcutaneous) was 60 min, the “Time to peak blood concentrations” value ([4]; pulmonary route without fumaryl diketopiperazine) was 25 to 60 min and the “Time to peak blood level” value ([4]; subcutaneous injection) was 30 to 90 min. For the same molecule, the “T50% (time from baseline to half-maximal values), calculated on insulin levels” value ([5]; 5 IU insulin intravenous) was 2 min, the “T to baseline, calculated on insulin levels” value ([5]; 5 IU insulin intravenous) was 60 min and the “T-50% (time from baseline to half-maximal after passing Tmax), calculated on insulin levels” value ([5]; 5 IU insulin intravenous) was 0.1 h. For the same molecule, the “Tmax, calculated on insulin levels” value ([5]; 5 IU insulin intravenous) was 0.083 h, the “T to baseline, calculated on insulin levels” value ([5]; 10 IU insulin subcutaneous) was 360 min and the “T-50% (time from baseline to half-maximal after passing Tmax), calculated on insulin levels” value ([5]; 10 IU insulin subcutaneous) was 4.17 h. The “Tmax, calculated on insulin levels” value ([5]; 10 IU insulin subcutaneous) was 2.02 h.
For “parathyroid hormone 1-34: peptide complexed with FDKP for pulmonary delivery”, the “Time to peak blood concentrations” value [2] was 3 to 10 min.
With salmon calcitonin the “Time to peak blood concentrations” value [2] was 3 to 10 min.
